This note sets out measurements from US20200157236A1 (CELLDEX THERAPEUTICS, published 2020).

Sequences and labels used below:
B1: Ab428 (antibody, V domains shown)
VH: EVQLVQSGAEVKKPGASVKLSCKASGYTFTSYWMHWVRQAPGQGLEWIGYIKPSSGYTKYNQKFKDKATLTADKSTSTAYMELRSLRSDDTAVYYCARDYYGSSSWFAYWGQGTLVTVSS
VL: EIVMTQSPATLSTSPGERATLSCRASQSVSSNLAWYQQKPGQAPRALIYSASYRYSGVPARFSGSGSGTDFTLTISSVEPEDFAVYYCQQYNSYPYMYTFGQGTKLEIK
notes: humanized
B2: Ab439 (antibody, V domains shown)
VH: QVQLVQSGAEVAKPGASVKLSCKASGYTFTSYWMHWVKQAPGQGLEWIGYIKPSSGYTKYNQKFKDKATLTADKSTSTAYMELRSLRSDDTAVYYCARDYYGSSSWFAYWGQGTLVTVSS
VL: EIVMTQSQATMSTSVGERATLSCKASQNVGTNVAWYQQKPGQSPKALIYGASTRATGVPARFSGSGSGTDFTLTISSVEPEDFAVYYCQQYNSYPYMYTFGQGTKLEIK
notes: humanized
B3: Ab435 (antibody, V domains shown)
VH: QVQLVQSGAEVAKPGTSVKLSCKASGYTFTSYWMHWVKQAPGQGLEWIGYIKPSSGYTKYNQKFKDKVTLTADKSTSTAYMELSSLRSEDTAVYYCARDYYGSSSWFAYWGQGTLVTVSS
VL: EIVMTQSQATMSTSVGERATLSCKASQNVGTNVAWYQQKPGQSPKALIYGASTRATGVPARFSGSGSGTDFTLTISSVEPEDFAVYYCQQYNSYPYMYTFGQGTKLEIK
notes: humanized
B4: Ab436 (antibody, V domains shown)
VH: EVQLVQSGPEVKKPGTSVKLSCKASGYTFTSYWMHWVRQARGQRLEWIGYIKPSSGYTKYNQKFKDRATLTADKSTSTAYMELSSLRSEDTAVYYCARDYYGSSSWFAYWGQGTLVTVSS
VL: EIVMTQSQATMSTSVGERATLSCKASQNVGTNVAWYQQKPGQSPKALIYGASTRATGVPARFSGSGSGTDFTLTISSVEPEDFAVYYCQQYNSYPYMYTFGQGTKLEIK
notes: humanized
B5: Ab434 (antibody, V domains shown)
VH: EVQLVQSGAEVKKPGSSVKLSCKASGYTFSSYWMHWVKQAPGQGLEWIGYIKPSSGYTKYAQKFQGRVTLTADKSTSTAYMELSSLRSEDTAVYYCARDYYGSSSWFAYWGQGTLVTVSS
VL: EIVMTQSPATLSTSPGERATLSCRASQSVSSNLAWYQQKPGQAPRALIYSASYRYSGVPARFSGSGSGTDFTLTISSVEPEDFAVYYCQQYNSYPYMYTFGQGTKLEIK
notes: humanized
B6: Ab446 (antibody, V domains shown)
VH: EVQLVQSGAEVKKPGSSVKLSCKASGYTFSSYWMHWVKQAPGQGLEWIGYIKPSSGYTKYAQKFQGRVTLTADKSTSTAYMELSSLRSEDTAVYYCARDYYGSSSWFAYWGQGTLVTVSS
VL: EIVMTQSQATMSTSVGERATLSCKASQNVGTNVAWYQQKPGQSPKALIYGASTRATGVPARFSGSGSGTDFTLTISSVEPEDFAVYYCQQYNSYPYMYTFGQGTKLEIK
notes: humanized
B7: Ab442 (antibody, V domains shown)
VH: EVQLVQSGAEVKKPGASVKLSCKASGYTFTSYWMHWVRQAPGQGLEWIGYIKPSSGYTKYAQKLQGRVTLTADKSTSTAYMELRSLRSDDTAVYYCARDYYGSSSWFAYWGQGTLVTVSS
VL: EIVMTQSQATMSTSVGERATLSCKASQNVGTNVAWYQQKPGQSPKALIYGASTRATGVPARFSGSGSGTDFTLTISSVEPEDFAVYYCQQYNSYPYMYTFGQGTKLEIK
notes: humanized
B8: Ab426 (antibody, V domains shown)
VH: EVQLVQSGAEVKKPGTSVKLSCKASGYTFTSYWMHWVRQARGQRLEWIGYIKPSSGYTKYAQKFQERVTLTADKSTSTAYMELSSLRSEDTAVYYCARDYYGSSSWFAYWGQGTLVTVSS
VL: EIVMTQSPATLSTSPGERATLSCRASQSVSSNLAWYQQKPGQAPRALIYSASYRYSGVPARFSGSGSGTDFTLTISSVEPEDFAVYYCQQYNSYPYMYTFGQGTKLEIK
notes: humanized
B9: Ab430 (antibody, V domains shown)
VH: EVQLVQSGAEVKKPGASVKLSCKASGYTFTSYWMHWVRQAPGQGLEWIGYIKPSSGYTKYAQKLQGRVTLTADKSTSTAYMELRSLRSDDTAVYYCARDYYGSSSWFAYWGQGTLVTVSS
VL: EIVMTQSPATLSTSPGERATLSCRASQSVSSNLAWYQQKPGQAPRALIYSASYRYSGVPARFSGSGSGTDFTLTISSVEPEDFAVYYCQQYNSYPYMYTFGQGTKLEIK
notes: humanized
B10: Ab406 (antibody, V domains shown)
VH: EVQLVQSGAEVKKPGASVKLSCKASGYTFTSYWMHWVRQAPGQGLEWIGYIKPSSGYTKYAQKLQGRVTLTADKSTSTAYMELRSLRSDDTAVYYCARDYYGSSSWFAYWGQGTLVTVSS
VL: EIVMTQSQATMSTSVGERATLSCKASQNVGTNVAWYQQKPGQSPKALIYSASYRYSGVPARFSGSGSGTDFTLTISSVEPEDFAVYYCQQYNSYPYMYTFGQGTKLEIK
notes: humanized
B11: Ab438 (antibody, V domains shown)
VH: EVQLVQSGAEVKKPGTSVKLSCKASGYTFTSYWMHWVRQARGQRLEWIGYIKPSSGYTKYAQKFQERVTLTADKSTSTAYMELSSLRSEDTAVYYCARDYYGSSSWFAYWGQGTLVTVSS
VL: EIVMTQSQATMSTSVGERATLSCKASQNVGTNVAWYQQKPGQSPKALIYGASTRATGVPARFSGSGSGTDFTLTISSVEPEDFAVYYCQQYNSYPYMYTFGQGTKLEIK
notes: humanized
B12: Ab445 (antibody, V domains shown)
VH: EVQLVQSGAEVKKPGSSVKVSCKASGYTFSSYWMHWVRQAPGQGLEWIGYIKPSSGYTKYNQKFKDKATLTADKSTSTAYMELSSLRSEDTAVYYCARDYYGSSSWFAYWGQGTLVTVSS
VL: EIVMTQSQATMSTSVGERATLSCKASQNVGTNVAWYQQKPGQSPKALIYGASTRATGVPARFSGSGSGTDFTLTISSVEPEDFAVYYCQQYNSYPYMYTFGQGTKLEIK
notes: humanized
B13: Ab444 (antibody, V domains shown)
VH: EVQLVQSGAEVKKPGSSVKLSCKASGYTFTSYWMHWVRQAPGQGLEWIGYIKPSSGYTKYNQKFKDKATLTADKSTSTAYMELSSLRSEDTAVYYCARDYYGSSSWFAYWGQGTLVTVSS
VL: EIVMTQSQATMSTSVGERATLSCKASQNVGTNVAWYQQKPGQSPKALIYGASTRATGVPARFSGSGSGTDFTLTISSVEPEDFAVYYCQQYNSYPYMYTFGQGTKLEIK
notes: humanized
B14: Ab431 (antibody, V domains shown)
VH: QVQLVQSGAEVAKPGSSVKLSCKASGYTFTSYWMHWVKQAPGQGLEWIGYIKPSSGYTKYNQKFKDKATLTADKSTSTAYMELSSLRSEDTAVYYCARDYYGSSSWFAYWGQGTLVTVSS
VL: EIVMTQSPATLSTSPGERATLSCRASQSVSSNLAWYQQKPGQAPRALIYSASYRYSGVPARFSGSGSGTDFTLTISSVEPEDFAVYYCQQYNSYPYMYTFGQGTKLEIK
notes: humanized
B15: Ab429 (antibody, V domains shown)
VH: EVQLVQSGAEVAKPGASVKLSCKASGYTFTSYWMHWVRQAPGQGLEWIGYIKPSSGYTKYNQKFKDKATLTADKSTSTAYMELRSLRSDDTAVYYCARDYYGSSSWFAYWGQGTLVTVSS
VL: EIVMTQSPATLSTSPGERATLSCRASQSVSSNLAWYQQKPGQAPRALIYSASYRYSGVPARFSGSGSGTDFTLTISSVEPEDFAVYYCQQYNSYPYMYTFGQGTKLEIK
notes: humanized
B16: Ab433 (antibody, V domains shown)
VH: EVQLVQSGAEVKKPGSSVKVSCKASGYTFSSYWMHWVRQAPGQGLEWIGYIKPSSGYTKYNQKFKDKATLTADKSTSTAYMELSSLRSEDTAVYYCARDYYGSSSWFAYWGQGTLVTVSS
VL: EIVMTQSPATLSTSPGERATLSCRASQSVSSNLAWYQQKPGQAPRALIYSASYRYSGVPARFSGSGSGTDFTLTISSVEPEDFAVYYCQQYNSYPYMYTFGQGTKLEIK
notes: humanized
B17: Ab441 (antibody, V domains shown)
VH: EVQLVQSGAEVAKPGASVKLSCKASGYTFTSYWMHWVRQAPGQGLEWIGYIKPSSGYTKYNQKFKDKATLTADKSTSTAYMELRSLRSDDTAVYYCARDYYGSSSWFAYWGQGTLVTVSS
VL: EIVMTQSQATMSTSVGERATLSCKASQNVGTNVAWYQQKPGQSPKALIYGASTRATGVPARFSGSGSGTDFTLTISSVEPEDFAVYYCQQYNSYPYMYTFGQGTKLEIK
notes: humanized
B18: Ab432 (antibody, V domains shown)
VH: EVQLVQSGAEVKKPGSSVKLSCKASGYTFTSYWMHWVRQAPGQGLEWIGYIKPSSGYTKYNQKFKDKATLTADKSTSTAYMELSSLRSEDTAVYYCARDYYGSSSWFAYWGQGTLVTVSS
VL: EIVMTQSPATLSTSPGERATLSCRASQSVSSNLAWYQQKPGQAPRALIYSASYRYSGVPARFSGSGSGTDFTLTISSVEPEDFAVYYCQQYNSYPYMYTFGQGTKLEIK
notes: humanized
B19: Ab440 (antibody, V domains shown)
VH: EVQLVQSGAEVKKPGASVKLSCKASGYTFTSYWMHWVRQAPGQGLEWIGYIKPSSGYTKYNQKFKDKATLTADKSTSTAYMELRSLRSDDTAVYYCARDYYGSSSWFAYWGQGTLVTVSS
VL: EIVMTQSQATMSTSVGERATLSCKASQNVGTNVAWYQQKPGQSPKALIYGASTRATGVPARFSGSGSGTDFTLTISSVEPEDFAVYYCQQYNSYPYMYTFGQGTKLEIK
notes: humanized
B20: Ab443 (antibody, V domains shown)
VH: QVQLVQSGAEVAKPGSSVKLSCKASGYTFTSYWMHWVKQAPGQGLEWIGYIKPSSGYTKYNQKFKDKATLTADKSTSTAYMELSSLRSEDTAVYYCARDYYGSSSWFAYWGQGTLVTVSS
VL: EIVMTQSQATMSTSVGERATLSCKASQNVGTNVAWYQQKPGQSPKALIYGASTRATGVPARFSGSGSGTDFTLTISSVEPEDFAVYYCQQYNSYPYMYTFGQGTKLEIK
notes: humanized

The target of the assay is T1, purified ALK protein (BLitz, Table 20) (Homo sapiens (Human), UniProt Q9UM73 19-1038, limits assumed).
T1 construct: also called purified ALK proteins
T1 sequence (Q9UM73 19-1038 limits assumed): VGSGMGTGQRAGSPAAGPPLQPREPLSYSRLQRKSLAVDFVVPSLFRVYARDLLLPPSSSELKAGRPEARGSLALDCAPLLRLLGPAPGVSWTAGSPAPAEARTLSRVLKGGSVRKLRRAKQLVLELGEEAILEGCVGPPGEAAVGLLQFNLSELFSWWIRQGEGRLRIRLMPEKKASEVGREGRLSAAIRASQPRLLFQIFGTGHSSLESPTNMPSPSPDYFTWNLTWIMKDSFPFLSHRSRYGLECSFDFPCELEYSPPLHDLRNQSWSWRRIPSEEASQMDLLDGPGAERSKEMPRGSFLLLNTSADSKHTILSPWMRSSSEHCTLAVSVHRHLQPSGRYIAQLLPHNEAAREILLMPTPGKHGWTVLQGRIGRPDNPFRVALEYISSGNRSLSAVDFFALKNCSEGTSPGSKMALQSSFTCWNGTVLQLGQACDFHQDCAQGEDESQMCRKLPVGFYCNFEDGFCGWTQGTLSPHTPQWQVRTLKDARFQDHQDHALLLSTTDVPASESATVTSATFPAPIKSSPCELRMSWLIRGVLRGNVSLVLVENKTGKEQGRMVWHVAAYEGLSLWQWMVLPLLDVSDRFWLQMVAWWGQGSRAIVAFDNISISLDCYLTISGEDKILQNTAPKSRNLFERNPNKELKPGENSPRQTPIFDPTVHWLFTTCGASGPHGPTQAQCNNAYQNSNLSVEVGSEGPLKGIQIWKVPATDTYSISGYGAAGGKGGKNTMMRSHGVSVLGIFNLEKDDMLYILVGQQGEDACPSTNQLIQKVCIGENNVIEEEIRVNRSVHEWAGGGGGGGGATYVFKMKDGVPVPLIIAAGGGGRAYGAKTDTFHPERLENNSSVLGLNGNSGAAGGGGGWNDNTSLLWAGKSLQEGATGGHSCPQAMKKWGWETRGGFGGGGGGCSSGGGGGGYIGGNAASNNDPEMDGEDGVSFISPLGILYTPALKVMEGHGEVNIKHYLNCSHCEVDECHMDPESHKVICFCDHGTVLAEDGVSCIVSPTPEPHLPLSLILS
Kind of assay: BLI (BLitz), mAb on Protein A tip, purified ALK in solution. In outline: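 Humanized anti-ALK mAbs loaded at 0.5 mg/mL on Protein A tips; after stable baseline, purified ALK protein at 70 μg/mL added. Kinetic traces fit to a single binding site model to give monovalent KD.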
The molecule B1 displayed a Kd of 253 nM.
Regarding B2, the Kd stood at 138 nM.
As for B3, the figure is 317 nM; as for B4, 120 nM.
Turning to B5, binding was put at a Kd of 329 nM.
B6 had a Kd of 393 nM.
As for B7, the Kd came out at 219 nM.
For B8 the value was 868 nM.
In turn, B9 registered a Kd of 211 nM.
Molecule B10 returned a Kd of 110 nM. Against the preceding molecule, the Kd is about 1.9-fold lower.
Molecule B11 came in with a Kd of 310 nM.
As for B12, the figure is 521 nM.
B13 showed a Kd of 236 nM.
For the molecule B14, the Kd was 252 nM.
Consider B15, for which binding was characterised by a dissociation constant (Kd) of 326 nM.
B16 returned a Kd of 197 nM.
The molecule B17 had a Kd of 167 nM.
B18 had a Kd of 337 nM.
B19 showed a Kd of 138 nM.
As for B20, the figure is 145 nM.

Broadly, the Kd is a measure of binding affinity in units of concentration. Higher therefore signals lower affinity.
